Measured values: article PMC8455074 (Cancer cell, 2020)
Ends that are not written are not given here. * marks the point of attachment. Biotin = O=C1N[C@H]2[C@H](CS[C@H]2CCCCC(=O)*)N1

T1: His-tagged CXorf67, recombinant (human, UniProt Q86X51 1-503)
T1 sequence (looked up): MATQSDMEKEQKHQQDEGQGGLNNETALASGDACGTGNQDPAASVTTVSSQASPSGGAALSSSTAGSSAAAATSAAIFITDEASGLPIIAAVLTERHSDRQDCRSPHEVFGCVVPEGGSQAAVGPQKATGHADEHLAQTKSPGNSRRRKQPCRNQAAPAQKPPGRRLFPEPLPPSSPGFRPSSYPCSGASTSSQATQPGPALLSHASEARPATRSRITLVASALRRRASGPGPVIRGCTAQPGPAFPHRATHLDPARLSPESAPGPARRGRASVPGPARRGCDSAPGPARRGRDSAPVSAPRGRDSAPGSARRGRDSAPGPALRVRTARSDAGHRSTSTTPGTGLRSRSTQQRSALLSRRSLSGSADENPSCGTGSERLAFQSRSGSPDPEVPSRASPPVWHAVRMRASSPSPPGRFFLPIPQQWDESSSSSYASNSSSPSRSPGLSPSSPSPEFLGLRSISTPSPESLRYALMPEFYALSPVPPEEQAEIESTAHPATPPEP

B1: GST-tagged PALB2 WD40 domain (domain or fragment, UniProt Q86YC2 853-1186, looked up)
chain: GNLQLVSELKNPSGSCSVDVSAMFWERAGCKEPCIITACEDVVSLWKALDAWQWEKLYTWHFAEVPVLQIVPVPDVYNLVCVALGNLEIREIRALFCSSDDESEKQVLLKSGNIKAVLGLTKRRLVSSSGTLSDQQVEVMTFAEDGGGKENQFLMPPEETILTFAEVQGMQEALLGTTIMNNIVIWNLKTGQLLKKMHIDDSYQASVCHKAYSEMGLLFIVLSHPCAKESESLRSPVFQLIVINPKTTLSVGVMLYCLPPGQAGRFLEGDVKDHCAAAILTSGTIAIWDLLLGQCTALLPPVSDQHWSFVKWSGTDSHLLAGQKDGNIFVYHYS

Experiments:
[1] = target: T1, His-tagged CXorf67, recombinant; assay: pull-down
[2] = target: B1; assay: pull-down

Row | binding result [1] | binding result [2] | Binder
1 | binds |  | B1
2 |  | binds | Biotin-GGPIPQQWDESSSSS [biotinylated WT C67 (420-432) peptide]
